Test results from patent US20120121579A1, “TREATMENT OF ONCOSTATIN M RECEPTOR BETA MEDIATED HEART FAILURE” (MAX-PLANCK-GESELLSCHAFT ZUR FORDERUNG DER WISSENSCHAFTEN …, priority 2009, published 2012).
Entries after “also recorded” stand apart in the source; their conditions may differ.

Assays:
cardiomyocytes [1] = assay: Morphology of cultured adult cardiomyocytes: lengthening, sarcomeres, α-SM actin, cell growth (phase contrast, immunostaining); type: cell-based, rat; details: for inhibition of OSM-induced cell lengthening: OSM-stimulated cardiomyocytes, serum-free
Procedure: (§1) MCP-1 transgenic animals, intraperitoneally injection of oncostatin M and culture of adult cardiomyocytes. The generation of transgenic mice (from FVB/N mice) with cardiac restricted overexpression of monocyte chemotactic protein-1 has been previously described (Kolattukudy et al. 1998). 6 months old FVB mice were injected intraperitoneally twice daily with a volume of 0.2 ml of phosphate buffered saline containing 5% fetal calf serum without (CON) or with 60 ng oncostatin M (OSM) per gram of animal for fourteen days. Ventricular cardiac myocytes of 6-mo-old rats were isolated as previously described (Kubin et al. 1999). Myocytes were plated at a density of 1.5×10^4 cells/cm^2 on laminin-coated (10 μg/ml; Sigma) chamber slides or 6 well dishes (Nunc) in basic medium. Myocytes were allowed to recover for 2 days in 2% fetal calf serum (FCS). Thereafter, basic medium, FCS, 50 ng/ml insulin-like growth factor-1 or 20 ng/ml of cytokines were added as indicated. Media were replaced every other day. UO126 (Cell Signaling Technology) was added 1 h prior to stimulation. All experiments were performed in duplicate and constantly treated with 10 μM 1-(β-D-arabinofuranosyl)cytosine to prevent nonmyocyte growth. Determination of secreted ANP by Western Blot was performed after ultrafiltration (Millipore).
(§2) Phase-contrast micrographs, immunocytochemistry and fluorescence microscopy. Phase-contrast micrographs were taken with a 20× lens. For immunocytochemistry and fluorescence microscopy samples were processed as previously described (Kubin et al. 1999).

Erk1/2 = assay: OSM-induced Erk1/2 activation in cultured cardiomyocytes (Western blot); type: cell-based, rat; details: after 10 minutes of OSM
Procedure: as §1, with “Determination of secreted ANP by Western Blot was performed after ultrafiltration (Millipore).” left out
(§3) Preparation of Protein Extracts and Western Blot Analysis. […] Immunoreactive proteins were visualized on the VersaDoc (BioRad) and analyzed using the QuantityOne software (BioRad).

[2] = test system: OSM treated cardiomyocytes; assay: Inhibition of OSM-induced FGP in cultured cardiomyocytes (Western blot of 95 kDa B-Raf, α-SM actin, destrin, secreted ANP); type: cell-based, rat; details: after 10 days of OSM
Procedure: as §1, with “Determination of secreted ANP by Western Blot was performed after ultrafiltration (Millipore).” left out
as §3

cardiomyocytes [3] = assay: Cytokine-induced FGP / dedifferentiation markers in cultured adult cardiomyocytes (Western blot); type: cell-based, rat; details: 20 ng/ml of cytokines, 10d of serum-free culture
Procedure: as §1
(§4) Preparation of Protein Extracts and Western Blot Analysis. Tissue Samples were Sonicated in Lysis buffer (0.1M Tris-HCl, 10% sodium dodecylsulfate (SDS), 10 mM ethylenediamine tetraacetic acid, 40 mM dithiothreitol (DTT); pH 8.0) containing inhibitors as previously described (Vogel et al. 2006). Cultures were washed twice with PBS and harvested by scraping in lysis buffer. After heating for 1 minute at 99° C. debris was removed by centrifugation for 2 min at 14000 g. Twenty micrograms of protein extracts were separated on 4%-12% SDS-PAGE gradient gels and processed as previously described (Vogel et al. 2006). Immunoreactive proteins were visualized on the VersaDoc (BioRad) and analyzed using the QuantityOne software (BioRad).

gp130/Raf/Erk axis = assay: Intraperitoneal oncostatin M treatment of mice, Western blot and immunostaining of cardiac tissue; type: in vivo, mouse
Procedure: as §1, §4, §2

[4] = 60 ng OSM per gram i.p. twice daily for fourteen days

For `N#CC(=C(/N)Sc1ccccc1N)/C(C#N)=C(/N)Sc1ccccc1N` [UO126], the “inhibition of OSM-induced cell lengthening” value (cardiomyocytes [1]; 8 days) was “completely abolished OSM-induced lengthening; also recorded: abolishment of cell lengthening”, the “inhibition of OSM-induced cell lengthening” value (cardiomyocytes [1]; 8 days, listed as UO) was “abolishes this effect” and the “inhibition of OSM-induced Erk1/2 activation (phosphorylation)” value (Erk1/2) was “abolished the activation of Erk1/2; also recorded: inhibition of Erk1/2 activation”. For the same molecule, the “inhibition of OSM-induced re-expression of α-SM actin, the 95 kDa B-Raf and destrin (FGP)” value [2] was “complete inhibition of the reexpression; also recorded: loss of re-expression of α-SM actin, the 95 kDa B-Raf and destrin; also recorded: abolishment of cell lengthening, the reexpression of ANP, α-SM actin and the 95 kDa B-Raf isoform” and the “secretion of ANP by OSM-treated cardiomyocytes” value [2] was “loss of secreted atrial natriuretic peptide; also recorded: reduced secretion of ANP”.

With “MCP-1: monocyte chemotactic protein-1, recombinant mouse protein” the “induction of FGP / dedifferentiation (re-expression of the 95 kDa B-Raf, α-SM actin and destrin)” value (shortened to “induction of FGP / dedifferentiation”) (cardiomyocytes [3]) was “neither TNF-α nor MCP-1 induced FGP”.

In the case of TNF-α, the “induction of FGP / dedifferentiation” value (cardiomyocytes [3]) is reported as “neither TNF-α nor MCP-1 induced FGP”.

B1: 11-6: interleukin-6, recombinant mouse cytokine (protein, UniProt P08505 25-211, looked up)
Interleukin-6: FPTSQVRRGDFTEDTTPNRPVYTTSQVGGLITHVLWEIVEMRKELCNGNSDCMNNDDALAENNLKLPEIQRNDGCYQTGYNQEICLLKISSGLLEYHSYLEYMKNNLKDNKKDKARVLQRDTETLIHIFNQEVKDLHKIVLPTPISNALLTDKLESQKEWLRTKTIQFILKSLEEFLKVTLRSTRQT
In the case of B1, the “induction of FGP / dedifferentiation” value (cardiomyocytes [3]) is reported as “only a limited capacity to induce dedifferentiation”.

B2: OSM: mouse oncostatin M, recombinant cytokine obtained from Sigma (protein)
chain: ANRGCSNSSSQLLSQLQNQANLTGNTESLLEPYIRLQNLNTPDLRAACTQHSVAFPSEDTLRQLSKPHFLSTVYTTLDRVLYQLDALRQKFLKTPAFPKLDSARHNILGIRNNVFCMARLLNHSLEIPEPTQTDSGASRSTTTPDVFNTKIGSCGFLWGYHRFMGSVGRVFREWDDGSTRSRR
In the case of B2, the “induction of FGP / dedifferentiation” value (cardiomyocytes [3]) is reported as “induces more potently FGP than LIF”, the “re-expression of α-SM actin (immunostaining)” value (cardiomyocytes [1]; 2% serum, 12 days) is reported as “massive re-expression of α-SM actin throughout the myocyte” and the loss of sarcomeres (cardiomyocytes [1]; 2% serum, 12 days, versus 2% serum treated controls) is reported as “massive loss of sarcomeres”. For the same molecule, the “remodelling of cardiomyocytes (cell lengthening)” value (cardiomyocytes [1]; absence of serum, 8 days) was “remodelling of cardiomyocytes primarily visible in cell lengthening”, the “P-Erk1/2 in cardiac tissue” value (gp130/Raf/Erk axis; [4]) was “Moderate increases” and the “amounts of B-Raf isoforms in cardiac tissue” value (gp130/Raf/Erk axis; [4]) was “increased amounts of all B-Raf isoforms”. The “level of LIF in cardiac tissue” value (gp130/Raf/Erk axis; [4]) was “did not change; also recorded: No changes”, the “level of α-SM actin, destrin and ANP in myocardial tissue” value (gp130/Raf/Erk axis; [4]) was “increased level” and the “phosphorylation level of the serine residue 782 of gp130” value (gp130/Raf/Erk axis; [4]) was “significant increases”. The “amount of OSMRβ in cardiac tissue” value (gp130/Raf/Erk axis; 60 ng OSM per gram i.p. twice daily for fourteen days, 6 months old mice) was “significant increases” and the “heart failure phenotype after injection into mice” value (gp130/Raf/Erk axis; injection of OSM into mice) was “resulted into the heart failure phenotype of DCM”.

B3: cardiotrophin: recombinant mouse cytokine of the interleukin-6 class (protein, UniProt Q60753 1-203, looked up)
Cardiotrophin-1: MSQREGSLEDHQTDSSISFLPHLEAKIRQTHNLARLLTKYAEQLLEEYVQQQGEPFGLPGFSPPRLPLAGLSGPAPSHAGLPVSERLRQDAAALSVLPALLDAVRRRQAELNPRAPRLLRSLEDAARQVRALGAAVETVLAALGAAARGPGPEPVTVATLFTANSTAGIFSAKVLGFHVCGLYGEWVSRTEGDLGQLVPGGVA
In the case of B3, the “induction of FGP / dedifferentiation” value (cardiomyocytes [3]) is reported as “only a limited capacity to induce dedifferentiation”.
